Experimental data from PMC11931385, “Structural and functional analysis of cancer-associated missense variants in the retinoblastoma protein pocket domain” (The Journal of Biological Chemistry, 2025).
No end group written: not given here. TMR = tetramethyl rhodamine dye

How the values were obtained:
Rb^P M704V = target: T1, Rb^P M704V (human, UniProt P06400 380-788, M704V); assay: fluorescence polarisation; 25 °C after warming to 37 °C (7 min ramp, 2 min at 37 °C), 1 min on ice and 3 min at 25 °C; unlabeled Rb^P against 1.5 nM TMR-E2F1^TD or 7.5 nM TMR-E7^LxCxE; 25 mM Tris pH 8.0, 200 mM NaCl, 1 mM DTT, 0.1% Tween-20; apparent Kd; details: both partners purified
T1 construct: also called variant 66
T1 sequence (looked up): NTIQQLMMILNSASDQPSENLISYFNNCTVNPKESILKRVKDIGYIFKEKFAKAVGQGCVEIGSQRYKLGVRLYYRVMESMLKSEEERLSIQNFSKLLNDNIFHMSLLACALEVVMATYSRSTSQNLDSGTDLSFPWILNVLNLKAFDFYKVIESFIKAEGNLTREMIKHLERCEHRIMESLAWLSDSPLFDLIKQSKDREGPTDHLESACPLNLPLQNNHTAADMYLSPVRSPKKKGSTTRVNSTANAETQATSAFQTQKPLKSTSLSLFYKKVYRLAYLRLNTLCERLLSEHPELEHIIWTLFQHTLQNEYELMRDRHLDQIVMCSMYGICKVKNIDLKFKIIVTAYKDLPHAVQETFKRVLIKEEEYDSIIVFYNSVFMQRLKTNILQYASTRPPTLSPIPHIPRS

Rb^P S751Y = target: T2, Rb^P S751Y (human, UniProt P06400 380-788, S751Y); assay: as above; details: both partners purified
T2 construct: also called variant 72
T2 sequence (looked up): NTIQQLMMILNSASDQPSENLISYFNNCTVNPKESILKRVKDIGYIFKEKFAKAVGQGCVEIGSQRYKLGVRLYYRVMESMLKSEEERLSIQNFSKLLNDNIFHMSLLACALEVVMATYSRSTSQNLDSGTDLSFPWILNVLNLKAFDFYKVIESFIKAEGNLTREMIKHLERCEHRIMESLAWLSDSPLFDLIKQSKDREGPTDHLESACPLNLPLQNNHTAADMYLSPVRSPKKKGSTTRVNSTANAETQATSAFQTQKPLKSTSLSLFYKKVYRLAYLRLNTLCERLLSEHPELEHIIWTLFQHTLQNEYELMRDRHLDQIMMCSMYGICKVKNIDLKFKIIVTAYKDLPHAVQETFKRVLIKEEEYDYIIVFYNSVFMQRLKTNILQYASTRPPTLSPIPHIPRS

Binder	Kd (Rb^P M704V)	Kd (Rb^P S751Y)
{TMR}-GEGIRDLFDCDFGDLTPLD (also called E2F^TD; source: synthetic peptide, bought: GenScript) [TMR-E2F1^TD, peptide of the E2F1 transactivation domain]	46 nM	28 nM
DLYCYEQLN (also: TMR label, position not given here, source: synthetic peptide, bought: GenScript) [TMR-E7^LxCxE, LxCxE peptide of the E7 oncoprotein from HPV]	14 nM	119 nM
